The text below walks through data of US20030092613A1, “Alpha7 nicotinic receptor peptides as ligands for beta amyloid peptides” (priority 2000, published 2003).

The target in assay [1] is T1, 125I-α-bungarotoxin, P60615.
T1 chain: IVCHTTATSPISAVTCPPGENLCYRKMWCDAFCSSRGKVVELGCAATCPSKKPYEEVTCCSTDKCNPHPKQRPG

Assay [2] concerns the target β-amyloid1-42, P05067. In words: cell-based or functional assay.

B1: (Ac)…-amide (peptide)
peptide: Ac-SERFYECCKAP-NH2
modifications: cysteine pairing not given here
As to B1, the IC50 (usually the midpoint of a concentration-inhibition curve) in assay [1] is greater than 100 µM. Also, in assay [2], the ACh rel % Inh @ 100 µM turned out to be 75% and the Inh ACh rel IC50 is 0.426 µM.

B2: (Ac)…-amide (peptide)
peptide: Ac-GIPGKRSERFYECCK-NH2
modifications: cysteine pairing not given here
In assay [2], B2 gave an ACh rel % Inh @ 100 µM of 73% and an Inh ACh rel IC50 of 1.21 µM.

B3: (Ac)…-amide (peptide)
peptide: Ac-SERAYECCKEP-NH2
modifications: cysteine pairing not given here
In turn, B3 gave an IC50 in assay [1] greater than 100 µM. In assay [2], this molecule displayed an ACh rel % Inh @ 100 µM of 14% and an Inh ACh rel IC50 greater than 10 µM.

B4: (Ac)…-amide (peptide)
peptide: Ac-SERFYEACKEP-NH2
Regarding B4, the IC50 in assay [1] was greater than 100 µM. Further, in assay [2], the ACh rel % Inh @ 100 µM amounted to 19% and the Inh ACh rel IC50 is greater than 10 µM.

B5: (Ac)…-amide (peptide)
peptide: Ac-IPGKRSERFYECCKEPYP-NH2
modifications: cysteine pairing not given here
For B5, in assay [2], the ACh rel % Inh @ 100 µM came out at 79% and the Inh ACh rel IC50 came to 0.71 µM.

B6: (Ac)…-amide (peptide)
peptide: Ac-SERFYACCKEP-NH2
modifications: cysteine pairing not given here
Molecule B6 had an IC50 in assay [1] of 9.5 µM. In assay [2], this molecule registered an ACh rel % Inh @ 100 µM of 14% and an Inh ACh rel IC50 greater than 10 µM.

B7: (Ac)…-amide (peptide)
peptide: Ac-SERFYECCKEA-NH2
modifications: cysteine pairing not given here
For B7, in assay [1], the IC50 was greater than 100 µM. In assay [2], this molecule gave an ACh rel % Inh @ 100 µM of 59% and an Inh ACh rel IC50 of less than 10 µM.

B8: (Ac)…-amide (peptide)
peptide: Ac-SERFAECCKEP-NH2
modifications: cysteine pairing not given here
As to B8, in assay [1], the IC50 was greater than 100 µM. In assay [2], the ACh rel % Inh @ 100 µM turned out to be 18% and the Inh ACh rel IC50 was greater than 10 µM.

B9: (Ac)…-amide (peptide)
peptide: Ac-SARFYECCKEP-NH2
modifications: cysteine pairing not given here
Molecule B9 came in with an IC50 in assay [1] of 8.4 µM. In assay [2], the ACh rel % Inh @ 100 µM turned out to be 13% and the Inh ACh rel IC50 is greater than 10 µM.

B10: (Ac)…-amide (peptide)
peptide: Ac-SERFYECCAEP-NH2
modifications: cysteine pairing not given here
In assay [1], B10 had an IC50 of 1.3 µM. In assay [2], this molecule showed an ACh rel % Inh @ 100 µM of 19% and an Inh ACh rel IC50 greater than 10 µM.

B11: (Ac)…-amide (peptide)
peptide: Ac-SERFYECAKEP-NH2
The molecule B11 displayed an IC50 in assay [1] greater than 100 µM. In assay [2], this molecule returned an ACh rel % Inh @ 100 µM of 85% and an Inh ACh rel IC50 of 0.165 µM.

B12: (Ac)…-amide (peptide)
peptide: Ac-IPGKRSERFYECCKEPYPDV-NH2
modifications: cysteine pairing not given here
B12 gave an IC50 in assay [1] of 0.2 µM. Also, in assay [2], the ACh rel % Inh @ 100 µM is 73% and the Inh ACh rel IC50 is 0.626 µM.

B13: (Ac)…-amide (peptide)
peptide: Ac-AERFYECCKEP-NH2
modifications: cysteine pairing not given here
In the case of B13, the IC50 in assay [1] came out at 15 µM. In assay [2], the ACh rel % Inh @ 100 µM was 15% and the Inh ACh rel IC50 was greater than 10 µM.

B14: (Ac)…-amide (peptide)
peptide: Ac-SEAFYECCKEP-NH2
modifications: cysteine pairing not given here
The molecule B14 displayed an IC50 in assay [1] of 9.6 µM. Besides, in assay [2], the ACh rel % Inh @ 100 µM came to 70% and the Inh ACh rel IC50 came out at 0.277 µM.

B15: (Ac)…-amide (peptide)
peptide: Ac-SERFYECCKEP-NH2
modifications: cysteine pairing not given here
Regarding B15, the half-maximal inhibitory concentration (IC50) in assay [1] turned out to be 19 µM. In assay [2], this molecule showed an ACh rel % Inh @ 100 µM of 89% and an Inh ACh rel IC50 of 0.125 µM.
